# Data reported in the supplement of paper PMC10126150.
# ± gives the standard deviation of the averaged measurements.
# Test system: ATP
# Assay: switch fluorescence ratio, 500 uM ATP over buffer (Cy3 cluster intensity, sum of 5 cycles each) (fold (ratio)); higher = stronger signal-on switching upon ATP binding; sequences stand for … in TCGTCGGCAGCGTCAGATGTGTATAAGAGACAGTTTTTTTTTTTTTTTTTTTTTTTTT…TC
# Settings: aptamer strand: ATP DNA aptamer (quencher-CACCTGGGGGAGTATTGCGGAGGAAGG + anchor), 100 nM annealed; ATP concentration: 500 uM
# In short: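 The quencher-labelled ATP aptamer, at 100 nM, was annealed to Cy3-labelled switching-strand clusters on a modified Illumina MiSeq flow-cell. The clusters were imaged in selection buffer, then after 15 min with 500 uM ATP at 22 °C, and this buffer/ATP cycle ran five times with NaOH stripping and re-annealing between runs. Per-cluster fluorescence ratios, summed target-cycle over summed buffer-cycle Cy3 intensity, were averaged per switch-domain sequence. Clusters outside 100-1000 RFU were excluded.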
# 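Note: ATP exposure 15 min at 22 °C before imaging.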
row,Sequence,switch fluorescence ratio
1,CATTTATTTG,1.01 ± 0.014
2,CATTTATTTT,1.01 ± 0.044
3,CATTTCGGCG,0.999 ± 0.044
4,CATTTCGTAA,1.18 ± 0.02
5,CATTTCTTG,0.985 ± 0.029
6,CATTTGAGCC,0.973 ± 0.013
7,CATTTGGTCC,1.008 ± 0.0012
8,CATTTGTGGC,0.961 ± 0.058
9,CATTTGTTTT,1.02 ± 0.021
10,CATTTTAGAG,0.98256 ± 0.00032
11,CATTTTAGTG,1 ± 0.0021
12,CATTTTCTAG,1.03 ± 0.044
13,CATTTTGTGG,0.987 ± 0.012
14,CATTTTTAAC,0.977 ± 0.014
15,CATTTTTGAT,1.01 ± 0.02
16,CATTTTTGTT,0.979 ± 0.031
17,CATTTTTTT,0.99009 ± 0.00046
18,CCAAAAAGTG,1.03 ± 0.031
19,CCAAAACAGC,1.028 ± 0.0022
20,CCAAAAGGCA,1.0416 ± 0.00044
21,CCAAAGATTG,0.993 ± 0.064
22,CCAAAGGGAC,1.089 ± 0.0061
23,CCAAATGGTG,1.16 ± 0.021
24,CCAACAGGGA,1.112 ± 0.0014
25,CCAACCAAGG,1.16 ± 0.056
26,CCAACGGGCA,1.08 ± 0.031

row,Sequence,switch fluorescence ratio
1,CCAAGCACTT,1.45 ± 0.14
2,CCAAGCTTGT,1 ± 0.041
3,CCAAGGCGAT,2.33 ± 1.8
4,CCAAGGCTTT,1.03 ± 0.026
5,CCAAGGGGCG,0.987 ± 0.0077
6,CCAAGGGTAT,0.9873 ± 0.0019
7,CCAAGTCCTG,0.97 ± 0.092
8,CCAATGTACT,1.36 ± 0.05
9,CCAATGTCTC,1.08 ± 0.013
10,CCAATTTTGG,0.977 ± 0.013
11,CCACAAGGGG,1.02 ± 0.019
12,CCACACGAGA,1.18 ± 0.066
13,CCACACTGAT,1.025 ± 0.0025
14,CCACATTGGA,1.001 ± 0.01
15,CCACGAGATA,1.115 ± 0.0033
16,CCACTTATGC,1.13 ± 0.089
17,CCAGAATTAA,0.976 ± 0.011
18,CCAGACGTTT,1.037 ± 0.0073
19,CCAGCCCGGG,1.008 ± 0.0051
20,CCAGCCGGGG,1.06 ± 0.075
21,CCAGCCTAGT,0.98408 ± 0.0008
22,CCAGCTTCTG,1 ± 0.065
23,CCAGGAAGGT,1.0204 ± 0.00069
24,CCAGGAGGAG,1 ± 0.027
25,CCAGGCTATT,1.04 ± 0.026
26,CCAGGGAGGT,1 ± 0.034

row,Sequence,switch fluorescence ratio
1,CCAGGGGTGC,1.48 ± 0.05
2,CCAGGGTATA,1.03 ± 0.032
3,CCAGGGTGGG,1.03 ± 0.12
4,CCAGGGTTTT,1.06 ± 0.1
5,CCAGGTGTCT,2.16 ± 0.26
6,CCAGTAGAGC,1.01 ± 0.034
7,CCAGTCGTCT,1.02 ± 0.026
8,CCAGTGGCGA,1.16 ± 0.039
9,CCAGTGGTTG,0.9817 ± 0.0056
10,CCAGTGTAGA,1.01 ± 0.0052
11,CCAGTGTGGT,1.07 ± 0.074
12,CCAGTGTTAG,1.03 ± 0.013
13,CCATAAAGGG,1.07 ± 0.098
14,CCATAGGGGA,1.0339 ± 0.00023
15,CCATATCGAC,1.05 ± 0.05
16,CCATATTTGG,1.033 ± 0.0063
17,CCATCAAGTG,1.108 ± 0.0049
18,CCATCGCCCT,1.17 ± 0.061
19,CCATCGCCGG,1 ± 0.081
20,CCATCGGACA,1.016 ± 0.0064
21,CCATCGTAAC,2.28 ± 0.37
22,CCATGAGTGT,0.997 ± 0.032
23,CCATGATGGT,1.014 ± 0.0084
24,CCATGATTTG,0.9922 ± 0.0042
25,CCATGCTTGT,1.03 ± 0.035
26,CCATGGGGTG,1.25 ± 0.037

row,Sequence,switch fluorescence ratio
1,CCATTAAGTC,1.02 ± 0.045
2,CCATTGGGTT,1.02 ± 0.031
3,CCATTTACGT,1.04 ± 0.025
4,CCATTTTATT,0.988 ± 0.031
5,CCATTTTCAT,0.99 ± 0.041
6,CCATTTTTTG,0.993 ± 0.028
7,CCCAATCGGT,1.05 ± 0.027
8,CCCAATGATC,1.52 ± 0.043
9,CCCAATTATT,1.016 ± 0.0048
10,CCCACTGGGA,1.32 ± 0.39
11,CCCAGCAGGT,1.9 ± 0.18
12,CCCAGGACGC,1.397 ± 0.0036
13,CCCAGGTTAG,2.9 ± 0.2
14,CCCAGTATGG,1.001 ± 0.0082
15,CCCATTGGGG,1.03 ± 0.011
16,CCCATTGTAA,1.04 ± 0.025
17,CCCCCGGGGG,1.91 ± 0.15
18,CCCCCGTTCC,1.72 ± 0.2
19,CCCCGACTTT,1.07 ± 0.018
20,CCCCGTAGTC,4.6 ± 0.3
21,CCCCGTGTAT,2.48 ± 0.046
22,CCCCGTTTCG,1.08 ± 0.046
23,CCCCTGGAAT,1.08 ± 0.03
24,CCCCTTAGCG,1.09 ± 0.0067
25,CCCCTTGTGA,1.72 ± 0.04
26,CCCGAAGGTA,1.01 ± 0.024

row,Sequence,switch fluorescence ratio
1,CCCGAATCCT,1.06 ± 0.034
2,CCCGATGAGC,1.05 ± 0.025
3,CCCGCTAAGG,1.19 ± 0.028
4,CCCGGAGGCA,1.057 ± 0.004
5,CCCGGCTGGT,0.9956 ± 0.0095
6,CCCGGGGGT,1.13 ± 0.2
7,CCCGGGGTTT,1.31 ± 0.36
8,CCCGGGTGAT,4 ± 0.3
9,CCCGGGTTGT,1.16 ± 0.12
10,CCCGGTTTTT,1.06 ± 0.022
11,CCCGTATGTT,1.03 ± 0.018
12,CCCTAATAGA,1.03 ± 0.026
13,CCCTAGTGTG,2.97 ± 2.6
14,CCCTATATAG,1.01 ± 0.011
15,CCCTCTCGGT,1.037 ± 0.0028
16,CCCTGAGGGA,1.18 ± 0.086
17,CCCTGGACGA,1.07 ± 0.016
18,CCCTGGCACT,1.12 ± 0.005
19,CCCTGTTCGC,1.03 ± 0.041
20,CCGAAATTTA,1.19 ± 0.02
21,CCGAAGGACT,1.02 ± 0.072
22,CCGAAGTCCT,1.25 ± 0.033
23,CCGAATCCAG,1.111 ± 0.0099
24,CCGAATTTT,1.02 ± 0.037
25,CCGAGGGGGG,1.25 ± 0.35
26,CCGAGGTCGT,1.17 ± 0.066

row,Sequence,switch fluorescence ratio
1,CCGAGTAGAG,1.4 ± 0.067
2,CCGAGTGGGT,1.44 ± 0.57
3,CCGAGTTAGG,1.068 ± 0.0066
4,CCGAGTTTTT,1.07 ± 0.086
5,CCGATAGATG,1.065 ± 0.0047
6,CCGATGATTG,1.08 ± 0.014
7,CCGATGGGGA,1.156 ± 0.0049
8,CCGATGGGGG,1.01 ± 0.025
9,CCGATTATTT,0.997 ± 0.015
10,CCGCAGGGTT,1.51 ± 0.58
11,CCGCCTTGTT,1.11 ± 0.044
12,CCGCGGGTTC,1.55 ± 0.45
13,CCGGAAGGGG,1.06 ± 0.02
14,CCGGACCACG,1.01 ± 0.029
15,CCGGACCCAA,1.75 ± 0.23
16,CCGGACGCGT,1.52 ± 0.26
17,CCGGAGAGGT,2.28 ± 0.23
18,CCGGAGATTT,1.57 ± 0.028
19,CCGGAGGGGG,1.05 ± 0.02
20,CCGGATCGCG,1.043 ± 0.0047
21,CCGGATGGAG,1.02 ± 0.036
22,CCGGCGGGG,1.04 ± 0.027
23,CCGGCTGGTG,1.197 ± 0.0056
